Assay results taken from article PMC11182194.

Tests used:
aflibercept (human) = assay: ELISA; pH 5.5; biologic titrated and captured on coated human VEGF165; 1 ug/mL hFcRn-GST added for 1 h at room temperature (100 mM phosphate, 0.15 M NaCl, 4% skimmed milk, 0.05% Tween 20); detected with HRP-conjugated anti-GST
bevacizumab (human) = assay: as above
Sequence of bevacizumab (human) (heavy, as listed by the source, chain 1 of 2): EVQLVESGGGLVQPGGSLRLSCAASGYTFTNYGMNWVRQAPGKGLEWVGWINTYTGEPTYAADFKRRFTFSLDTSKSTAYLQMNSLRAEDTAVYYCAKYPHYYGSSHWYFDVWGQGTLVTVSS
Sequence of bevacizumab (human) (light, as listed by the source, chain 2 of 2): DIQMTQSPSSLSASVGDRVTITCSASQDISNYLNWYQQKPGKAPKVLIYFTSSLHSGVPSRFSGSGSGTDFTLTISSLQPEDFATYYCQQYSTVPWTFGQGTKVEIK

Sequence of recombinant hFcRn-GST (P55899 whole entry, looked up, tested part not stated): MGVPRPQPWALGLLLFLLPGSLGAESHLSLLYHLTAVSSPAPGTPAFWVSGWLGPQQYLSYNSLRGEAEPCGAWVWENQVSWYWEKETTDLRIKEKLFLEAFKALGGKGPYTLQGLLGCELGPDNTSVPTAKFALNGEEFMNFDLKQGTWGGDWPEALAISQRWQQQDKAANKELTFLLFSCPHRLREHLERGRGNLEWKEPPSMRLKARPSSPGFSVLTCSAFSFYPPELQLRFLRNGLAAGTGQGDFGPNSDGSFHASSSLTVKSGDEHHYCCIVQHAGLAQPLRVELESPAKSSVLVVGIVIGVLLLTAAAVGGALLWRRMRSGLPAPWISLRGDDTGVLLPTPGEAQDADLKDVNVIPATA

- reduction of absorbance at D30 (capped syringe) against D0-n (aflibercept (human)): 37.5%
- reduction of absorbance at D30 (capped syringe) against D0-n (bevacizumab (human)): 18.7%
Substance: recombinant hFcRn-GST (from UniProt P55899 24-365) (receptor)
